Columns and labels:
[1] = target: full-length recombinant H7 HA (A/Netherlands/219/2003) on PER.C6 cells (influenza A virus (H7N7)); assay: FACS, IgG 5 µg/ml, HA-expressing PER.C6 cells; untransfected MFI 21
[2] = target: full-length recombinant H3 HA (A/Wisconsin/67/2005) on PER.C6 cells (influenza A virus (H3N2)); assay: as above
[3] = target: full-length recombinant H1 HA (A/New Caledonia/20/1999) on PER.C6 cells (influenza A virus (H1N1)); assay: as above
[4] = target: HA of virus A/Johannesburg/33/94 (H3N2) (influenza A virus (H3N2)); assay: cell-based or functional assay
[5] = target: HA of virus A/Panama/2000/1999 (H3N2) (influenza A virus (H3N2)); assay: cell-based or functional assay
[6] = target: HA of virus A/Solomon Islands/IVR-145 (H1N1) (influenza A virus (H1N1)); assay: cell-based or functional assay
[7] = target: HA of virus A/Mallard/Netherlands/12/2000 (H7N3) (influenza A virus (H7N3)); assay: cell-based or functional assay
[8] = target: HA of virus A/Brisbane/59/2007 (H1N1) (influenza A virus (H1N1)); assay: cell-based or functional assay
[9] = target: HA of virus A/New Caledonia/20/1999 (H1N1) (influenza A virus (H1N1)); assay: cell-based or functional assay
[10] = target: HA of virus A/Hiroshima/52/2005 (H3N2) (influenza A virus (H3N2)); assay: cell-based or functional assay
[11] = target: HA of virus A/Chick/Germany/N/49 (H10) (influenza A virus (H10)); assay: cell-based or functional assay
[12] = target: HA of virus A/Wisconsin/67/2005 (H3N2) (influenza A virus (H3N2)); assay: cell-based or functional assay

B1: CR8055 (antibody, V domains shown)
VH: EIVLTQSPDFQSVAPKEKVTITCRASRSIGSDLHWFQQRPDQSPKLLIKFASQSMSGVPSRFSGSGSGRDFTLTISSLEAEDAATYYCHQSSSLPLT
VL: EVQLVESGGGLVQPGGSLRLSCAASGFTDSVIFMSWVRQAPGKGLECVSIIYIDDSTYYADSVKGRFTISRHNSMGTVFLEMNSLRPDDTAVYYCATESGDFGDQTGPYHYYAMDV
What does the source list for B1?
MFI [1]: 26 MFI; MFI [2]: 433 MFI; MFI [3]: 31 MFI; Neutralization titer SK50 [4]: 3.38 µg/mL; Neutralization titer SK50 [5]: > 40 µg/mL; Neutralization titer SK50 [6]: > 40 µg/mL; Neutralization titer SK50 [7]: > 40 µg/mL; Neutralization titer SK50 [8]: > 40 µg/mL; Neutralization titer SK50 [9]: > 40 µg/mL; Neutralization titer SK50 [10]: 1.15 µg/mL; Neutralization titer SK50 [11]: > 40 µg/mL; Neutralization titer SK50 [12]: 1.07 µg/mL

From patent publication US20130309248A1
